Reference: patent EP1652858A1

target: HLA-B0801 (human); assay: competition binding assay with labelled reference peptide; conditions: not given

Binder | Ki
TIMAKNEVF (modifications not checked) | 6 nM
YLKGSSGGPL (modifications not checked) | 10 nM
RTKLKLTPI (modifications not checked) | 2 nM

same assay, conditions: remark: other sources report otherwise

Binder | Ki
QPRGRRQPI (modifications not checked) | 3 nM
LPRRGPRL (modifications not checked) | 6 nM

target: HLA-Cw0702 (human); assay: as above; conditions: not given

Binder | Ki
VRVCEKMAL (modifications not checked) | 377 nM
TYSTYGKFL (modifications not checked) | 1020 nM
ARLIVFPDL (modifications not checked) | 514 nM

target: HLA-A0201 (human); assay: competition vs labelled reference peptide; conditions: not given

Binder | Ki
YLFNWAVRT (modifications not checked) | 29 nM
PLLLLLLAL (modifications not checked) | 6550 nM
MALYDVVST (modifications not checked) | 1140 nM
FLLALLSCLT (modifications not checked) | 132 nM
NIIMYAPTL (modifications not checked) | 70 nM
YQATVCARA (modifications not checked) | 20 nM
QIVGGVYLL (modifications not checked) | 228 nM
LVLNPSVAA (modifications not checked) | 2880 nM
FIPVESMET (modifications not checked) | 934 nM
SMVGNWAKV (modifications not checked) | 158 nM
CLVDYPYRL (modifications not checked) | 437 nM
KVLVLNPSV (modifications not checked) | 50 nM
RLYIGGPLT (modifications not checked) | 845 nM
AQPGYPWPL (modifications not checked) | 382 nM
GMFDSSVLC (modifications not checked) | 71 nM

same assay, conditions: remark: other sources report otherwise

Binder | Ki
SVFTGLTHI (modifications not checked) | 101 nM
ALAHGVRVL (modifications not checked) | 674 nM
WLGNIIMYA (modifications not checked) | 33 nM
YIPLVGAPL (modifications not checked) | 337 nM
IMACMSADL (modifications not checked) | 66 nM
NLPGCSFSI (modifications not checked) | 83 nM
DLCGSVFLV (modifications not checked) | 789 nM
IMAKNEVFCV (modifications not checked) | 199 nM

target: HLA-A2402 (human); assay: competition vs labelled reference peptide; conditions: not given

Binder | Ki
GLTHIDAHF (modifications not checked) | 10 nM
LYGNEGLGW (modifications not checked) | 5 nM
GLGWAGWLL (modifications not checked) | 68 nM
YYRGLDVSVI (modifications not checked) | 437 nM
PAVPQTFQV (modifications not checked) | 991 nM
TYSTYGKF (modifications not checked) | 192 nM
TWAQPGYPW (modifications not checked) | 8 nM
TLWARMILM (modifications not checked) | 2640 nM
FWAKHMWNF (modifications not checked) | 2 nM
PFYGKAIPI (modifications not checked) | 4 nM

same assay, conditions: remark: other sources report otherwise

Binder | Ki
AVMGSSYGF (modifications not checked) | 10 nM
NLPGCSFSI (modifications not checked) | 8 nM
VMGSSYGF (modifications not checked) | 33 nM
SWDQMWKCL (modifications not checked) | 670 nM

target: HLA-A0101 (human); assay: competition vs labelled reference peptide; conditions: not given

Binder | Ki
LADGGCSGGAY (modifications not checked) | 60 nM
VIDTLTCGF (modifications not checked) | 1130 nM
LTCGFADLM (modifications not checked) | 3550 nM
PAAYAAQGY (modifications not checked) | 1610 nM
LVDILAGYGA (modifications not checked) | 419 nM
FTEAMTRYS (modifications not checked) | 6610 nM
FTDNSSPPA (modifications not checked) | 10 nM

same assay, conditions: remark: other sources report otherwise

Binder | Ki
CYDAGCAWY (modifications not checked) | > 20000 nM
KSTKVPAAY (modifications not checked) | 950 nM
MGSSYGFQY (modifications not checked) | 1020 nM

target: HLA-B0801 (human); assay: competition vs labelled reference peptide; conditions: remark: other sources report otherwise

Binder | Ki
EARQAIRSL (modifications not checked) | 9 nM
IPLVGAPL (modifications not checked) | 20 nM

target: HLA-B0702 (human); assay: competition vs labelled reference peptide; conditions: not given

Binder | Ki
AAKLSALGL (modifications not checked) | 277 nM
APTGSGKST (modifications not checked) | 370 nM
APLGGAARA (modifications not checked) | 115 nM
AARALAHGV (modifications not checked) | 209 nM
ATLGFGAYM (modifications not checked) | 13000 nM
TPGERPSGM (modifications not checked) | 199 nM

same assay, conditions: remark: other sources report otherwise

Binder | Ki
APLGGAARAL (modifications not checked) | 1 nM
ALAHGVRVL (modifications not checked) | 7950 nM
KPTLHGPTPL (modifications not checked) | 6 nM
APTLWARMIL (modifications not checked) | 1 nM
QPRGRRQPI (modifications not checked) | 1 nM
LPRRGPRLGV (modifications not checked) | 3 nM
LPRRGPRL (modifications not checked) | 1 nM

target: HLA-B*3501 (human); assay: competition binding assay, purified HLA, labelled probe peptide; conditions: not given

Binder | IC50
LPAILSPGAL (modifications not checked) | 550 nM

target: HLA-B*0702 (human); assay: as above; conditions: not given

Binder | IC50
AAKLSALGL (modifications not checked) | 277 nM
APTGSGKST (modifications not checked) | 370 nM
APLGGAARA (modifications not checked) | 115 nM
IPLVGAPL (modifications not checked) | 25 nM
LPRRGPRLG (modifications not checked) | 124 nM
TPGERPSGM (modifications not checked) | 199 nM

same assay, conditions: remark: other sources report otherwise

Binder | IC50
APLGGAARAL (modifications not checked) | 0.8 nM
KPTLHGPTPL (modifications not checked) | 5.8 nM

target: HLA-B*0702 (human); assay: competition binding assay against a labelled reference peptide; Ki from IC50; conditions: remark: other sources report otherwise

Binder | Ki
APLGGAARAL (modifications not checked) | 1 nM
KPTLHGPTPL (modifications not checked) | 6 nM
APTLWARMIL (modifications not checked) | 1 nM
QPRGRRQPI (modifications not checked) | 1 nM
LPRRGPRLGV (modifications not checked) | 3 nM
